Bridge positions count the residues as written; N and C are the ends. Square brackets hold non-standard residues; d marks the D form. Ends that are not written are not given here. I, II: the chains in the order shown. 1Nal = N[C@@H](Cc1cccc2ccccc12)C(=O)O; PEG = not defined here
B1: Peptide dimer of Example 10, Code No. 17644 (R1 = R2 = GGTYSCHFGPLTBVCRPQGG, both N-termini acetylated, n1 = 1, n2 = 0, lysine linker) (peptide)
peptide 1: Ac-GGTYSCHFGPLT[1Nal]VCRPQGG
peptide 2: Ac-GGTYSCHFGPLT[1Nal]VCRPQGG
modifications: cysteine pairing not given here; also: dimer: C-termini joined through lysine linker, one chain (R1) via a beta-alanine, the other (R2) directly
B2: monomeric compound having the sequence GGTYSCHFGPLTBVCRPQGG (SEQ ID NO: 7) (peptide)
peptide: GGTYSCHFGPLT[1Nal]VCRPQGG
modifications: cysteine pairing not given here
B3: Peptide dimer of Example 7, Code No. 17286 (R1 = R2 = GGTYSCHFGPLTBVCRPQGG, n1 = 1, n2 = 0, lysine linker, intramolecular disulfide in each chain) (peptide)
peptide 1: GGTYSCHFGPLT[1Nal]VCRPQGG
peptide 2: GGTYSCHFGPLT[1Nal]VCRPQGG
modifications: disulfide I:6-I:15, II:6-II:15; not fully specified (C-terminus); also: dimer: C-termini joined by lysine linker, R1 through βAla, R2 directly, which chain is R1 not given here
B4: Peptide dimer of Example 11, Code No. 17762 (R1 = R2 = GGTYSCHFGPLTBVCRPQGG, both N-termini PEGylated, n1 = 1, n2 = 1, lysine linker) (peptide)
peptide: {PEG}-GGTYSCHFGPLT[1Nal]VCRPQGG
modifications: not fully specified (C-terminus); cysteine pairing not given here; reading uncertain; also: homodimer: C-termini joined via beta-alanine to a lysine linker, PEG size not given here
B5: Peptide dimer of Example 6, Code No. 19957 (R1 = R2 = GGTYSCHFGPLTBVCRPQGG, n1 = 0, n2 = 0, lysine linker, intramolecular disulfide in each chain) (peptide)
peptide: GGTYSCHFGPLT[1Nal]VCRPQGG
modifications: disulfide 6-15; also: dimer: C-termini of both chains bound to lysine (amide) linker
B6: Peptide dimer of Example 8, Code No. 19261 (R1 = R2 = GGTYSCHFGPLTBVCRPQGG, n1 = 1, n2 = 1, lysine linker, intramolecular disulfide in each chain) (peptide)
peptide: GGTYSCHFGPLT[1Nal]VCRPQGG
modifications: disulfide 6-15; not fully specified (C-terminus); also: dimer: each chain joined through βAla to lysine linker
B7: Peptide dimer of Example 1, Code No. 17218 (R1 = R2 = GGTYSCHFGPLTBVCRPQGG, n1 = 0, n2 = 0, lysine linker, free cysteine thiols) (peptide)
peptide: GGTYSCHFGPLT[1Nal]VCRPQGG
modifications: cysteine pairing not given here; also: dimer: two identical chains joined at C-termini through a lysine amide linker
B8: Peptide dimer of Example 4, Code No. 20532 (R1 = R2 = GGTYSCHFGPLTBVCRPQ, n1 = 0, n2 = 0, lysine linker, free cysteine thiols) (peptide)
peptide: GGTYSCHFGPLT[1Nal]VCRPQ
modifications: cysteine pairing not given here; also: homodimer: C-termini joined through a lysine linker
B9: Peptide dimer of Example 5, Code No. 20531 (R1 = R2 = GTYSCHFGPLTBVCRPQ, n1 = 0, n2 = 0, lysine linker, free cysteine thiols) (peptide)
peptide: GTYSCHFGPLT[1Nal]VCRPQ
modifications: cysteine pairing not given here; also: dimer: C-termini of both chains bound to lysine linker
B10: Peptide dimer of Example 12, Code No. 20952 (R1 = R2 = GGTYSCHFGPLTBVCRPQGGK, both N-termini acetylated, n1 = 0, n2 = 0, linker =O) (peptide)
peptide: Ac-GGTYSCHFGPLT[1Nal]VCRPQGGK
modifications: not fully specified; also: cysteine state not given here
B11: Peptide dimer of Example 3, Code No. 20526 (R1 = R2 = GGTYSCHFGPLTBVCRPQGG, n1 = 1, n2 = 1, lysine linker, free cysteine thiols) (peptide)
peptide: GGTYSCHFGPLT[1Nal]VCRPQGG
modifications: not fully specified (C-terminus); cysteine pairing not given here; also: homodimer: C-termini joined via beta-alanine to a lysine linker
B12: Peptide dimer of Example 2, Code No. 20528 (R1 = R2 = GGTYSCHFGPLTBVCRPQGG, n1 = 1, n2 = 0, lysine linker, free cysteine thiols) (peptide)
peptide 1: GGTYSCHFGPLT[1Nal]VCRPQGG
peptide 2: GGTYSCHFGPLT[1Nal]VCRPQGG
modifications: cysteine pairing not given here; also: dimer: C-termini joined through lysine linker, one chain (R1) via a beta-alanine, the other (R2) directly

Key:
[1] = target: T1, human erythropoietin receptor on Ba/F3-huEPOR cells (human, UniProt P19235 25-508); assay: cell-based or functional assay
T1 sequence (looked up): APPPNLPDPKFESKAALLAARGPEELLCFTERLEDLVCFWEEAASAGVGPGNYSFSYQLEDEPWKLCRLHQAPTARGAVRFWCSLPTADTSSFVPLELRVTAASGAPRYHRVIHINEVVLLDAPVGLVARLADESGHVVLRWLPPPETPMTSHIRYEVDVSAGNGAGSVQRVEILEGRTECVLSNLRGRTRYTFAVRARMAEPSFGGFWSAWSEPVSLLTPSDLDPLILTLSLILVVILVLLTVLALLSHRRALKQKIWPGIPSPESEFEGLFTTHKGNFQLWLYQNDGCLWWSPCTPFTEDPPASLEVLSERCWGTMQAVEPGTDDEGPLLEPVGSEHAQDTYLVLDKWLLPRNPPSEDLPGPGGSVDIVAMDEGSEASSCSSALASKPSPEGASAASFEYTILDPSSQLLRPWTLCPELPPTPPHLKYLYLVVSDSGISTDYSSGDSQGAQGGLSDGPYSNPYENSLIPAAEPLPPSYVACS

[2] = target: T1, human erythropoietin receptor on …; assay: cell-based or functional assay; remark: listed apart in the source

| Binder | EC50 (nM), bioassay (Ba/F3-huEPOR cell proliferation) [1] [nM] | EC50, bioassay (Ba/F3-huEPOR cell proliferation) [2] [nM] |
| --- | --- | --- |
| B1 | 5 |  |
| B2 |  | 200 |
| B3 | 0.4 |  |
| B4 | 0.4 |  |
| B5 | 0.5 |  |
| B6 | 0.3 |  |
| B7 | 6 |  |
| B8 | 50 |  |
| B9 | 100 |  |
| B10 | 2 |  |
| B11 | 5 |  |
| B12 | 6 |  |
